Molecular target: PRRSV SD16 virions (PRRSV-2 strain SD16)
Experiment: ELISA-based virus capture assay
Settings: plates coated with PRA mutant proteins; detection with PRRSV-convalescent swine serum and HRP-labeled goat anti-swine IgG; parent: est. 1.3; read off a plot

Going from “PRA, C-terminal domain of MYH9 (recombinant, wild type) I1683A” to “PRA, C-terminal domain of MYH9 (recombinant, wild type) E1670A”, the response rises from 0.88 OD450 to 0.95 OD450.

Going from “PRA, C-terminal domain of MYH9 (recombinant, wild type) E1679A” to “PRA, C-terminal domain of MYH9 (recombinant, wild type) E1670A; K1673A; E1679A; I1683A”, the response rises from 0.99 OD450 to 1.1 OD450.

Substance “PRA, C-terminal domain of MYH9 (recombinant, wild type) K1673A” has a response of 0.9 OD450.
